B1: mCherry::HSET, full length, wild type (natural protein, human, UniProt Q9BW19 1-673, looked up)
chain: MDPQRSPLLEVKGNIELKRPLIKAPSQLPLSGSRLKRRPDQMEDGLEPEKKRTRGLGATTKITTSHPRVPSLTTVPQTQGQTTAQKVSKKTGPRCSTAIATGLKNQKPVPAVPVQKSGTSGVPPMAGGKKPSKRPAWDLKGQLCDLNAELKRCRERTQTLDQENQQLQDQLRDAQQQVKALGTERTTLEGHLAKVQAQAEQGQQELKNLRACVLELEERLSTQEGLVQELQKKQVELQEERRGLMSQLEEKERRLQTSEAALSSSQAEVASLRQETVAQAALLTEREERLHGLEMERRRLHNQLQELKGNIRVFCRVRPVLPGEPTPPPGLLLFPSGPGGPSDPPTRLSLSRSDERRGTLSGAPAPPTRHDFSFDRVFPPGSGQDEVFEEIAMLVQSALDGYPVCIFAYGQTGSGKTFTMEGGPGGDPQLEGLIPRALRHLFSVAQELSGQGWTYSFVASYVEIYNETVRDLLATGTRKGQGGECEIRRAGPGSEELTVTNARYVPVSCEKEVDALLHLARQNRAVARTAQNERSSRSHSVFQLQISGEHSSRGLQCGAPLSLVDLAGSERLDPGLALGPGERERLRETQAINSSLSTLGLVIMALSNKESHVPYRNSKLTYLLQNSLGGSAKMLMFVNISPLEENVSESLNSLRFASKVNQCVIGTAQANRK
notes: HSET (KifC1), kinesin-14 family motor, human, full length; also called KifC1; mCherry::HSET(WT); source: SF9 insect cells (baculovirus), purified (Ni-NTA)

Legend:
[1] = target: GFP::CDK5RAP2 isoform B, full length, wild type (assembled into micron-scale scaffolds with anti-CM2 IgM) (human) (UniProt Q96SN8); assay: partitioning into in vitro scaffolds (confocal fluorescence microscopy); 4-component asters: 167 nM GFP::CDK5RAP2, 33 nM mBFP::γ-TuRCs, 33 nM mCherry::HSET, 13 µM HiLyte-647-labeled α/β-tubulin; 50 mM KCl, 25 mM HEPES pH 7.4, IgM+; compared with 3-component reactions without HSET
[2] = target: T1, GFP::CDK5RAP2 isoform B, full length, wild type (assembled into micron-scale scaffolds with anti-CM2 IgM) (human, UniProt Q96SN8-4 1-1814); assay: partitioning into in vitro scaffolds (confocal fluorescence microscopy); 120 nM GFP::CDK5RAP2 assembled with anti-CM2 IgM, 50 nM mCherry, mCherry::HSET or mCherry::HSET(ΔIDR); 50 mM KCl, 25 mM HEPES; partition coefficient of mCherry signal; conditions: both partners purified
T1 construct: CDK5RAP2 (CEP215) isoform B, human, Protein ID Q96SN8-4, lacking a.a; 1576-1654 of the longest isoform; full length; In the assays the protein stood as micron-scale assemblies nucleated by an anti-CM2 IgM; also called CEP215; GFP::CDK5RAP2(WT); source: SF9 insect cells (baculovirus), purified (MBP selector beads, PreScission cleavage, Ni-NTA to remove the protease)
T1 sequence (Q96SN8 other isoform, or with tags, fused parts or gaps): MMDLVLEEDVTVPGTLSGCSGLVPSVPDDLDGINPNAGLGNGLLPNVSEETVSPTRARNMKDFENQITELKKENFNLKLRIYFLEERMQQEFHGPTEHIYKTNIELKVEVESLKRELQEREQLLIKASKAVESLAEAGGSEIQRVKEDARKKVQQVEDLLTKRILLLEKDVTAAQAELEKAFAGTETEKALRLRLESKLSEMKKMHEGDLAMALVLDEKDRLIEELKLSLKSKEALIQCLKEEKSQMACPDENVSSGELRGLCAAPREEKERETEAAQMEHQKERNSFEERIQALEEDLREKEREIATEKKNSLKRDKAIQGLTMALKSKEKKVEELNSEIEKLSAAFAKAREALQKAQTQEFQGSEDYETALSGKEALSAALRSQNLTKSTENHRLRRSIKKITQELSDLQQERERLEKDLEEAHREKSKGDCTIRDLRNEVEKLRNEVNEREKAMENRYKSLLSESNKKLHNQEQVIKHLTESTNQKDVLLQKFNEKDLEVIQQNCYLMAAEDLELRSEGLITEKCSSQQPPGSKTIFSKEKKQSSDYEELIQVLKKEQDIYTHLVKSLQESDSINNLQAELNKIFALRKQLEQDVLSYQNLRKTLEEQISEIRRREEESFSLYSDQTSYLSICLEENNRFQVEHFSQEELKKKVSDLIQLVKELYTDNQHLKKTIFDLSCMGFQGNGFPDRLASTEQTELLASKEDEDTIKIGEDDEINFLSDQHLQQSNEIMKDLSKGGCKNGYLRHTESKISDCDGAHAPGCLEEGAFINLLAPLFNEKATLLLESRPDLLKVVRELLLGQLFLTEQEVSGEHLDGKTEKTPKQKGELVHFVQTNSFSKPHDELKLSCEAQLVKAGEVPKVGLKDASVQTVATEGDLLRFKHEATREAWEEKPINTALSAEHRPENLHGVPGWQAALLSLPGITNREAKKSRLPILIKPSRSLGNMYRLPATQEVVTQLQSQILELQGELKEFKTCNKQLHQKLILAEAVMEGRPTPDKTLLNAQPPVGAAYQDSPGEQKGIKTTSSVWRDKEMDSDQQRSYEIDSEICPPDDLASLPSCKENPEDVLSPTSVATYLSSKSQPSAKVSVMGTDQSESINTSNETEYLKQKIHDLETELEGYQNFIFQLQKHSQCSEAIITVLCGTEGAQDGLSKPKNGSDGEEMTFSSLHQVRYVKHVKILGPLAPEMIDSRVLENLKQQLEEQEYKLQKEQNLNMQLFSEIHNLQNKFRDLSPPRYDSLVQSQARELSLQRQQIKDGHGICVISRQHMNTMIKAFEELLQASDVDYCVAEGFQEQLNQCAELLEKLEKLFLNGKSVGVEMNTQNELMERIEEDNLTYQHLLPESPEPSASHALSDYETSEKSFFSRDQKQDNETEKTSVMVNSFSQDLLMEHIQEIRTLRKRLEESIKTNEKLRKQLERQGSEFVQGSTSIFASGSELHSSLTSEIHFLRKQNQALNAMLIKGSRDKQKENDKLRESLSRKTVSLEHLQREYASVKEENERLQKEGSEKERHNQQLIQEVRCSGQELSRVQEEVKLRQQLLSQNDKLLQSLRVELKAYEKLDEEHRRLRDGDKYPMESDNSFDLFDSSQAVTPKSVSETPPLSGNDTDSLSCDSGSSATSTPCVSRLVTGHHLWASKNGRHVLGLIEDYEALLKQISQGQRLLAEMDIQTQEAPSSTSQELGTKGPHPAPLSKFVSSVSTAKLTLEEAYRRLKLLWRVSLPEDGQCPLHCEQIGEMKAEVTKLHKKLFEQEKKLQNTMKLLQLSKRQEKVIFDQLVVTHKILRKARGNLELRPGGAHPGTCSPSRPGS

GFP::CDK5RAP2 isoform B, full length, wild type (assembled into micron-scale scaffolds with anti-CM2 IgM) (human), sequence (Q96SN8 other isoform, or with tags, fused parts or gaps): as above

Molecule | fold more γ-TuRC recruited with mCherry::HSET than without [1] | binding result [2]
human γ-tubulin ring complex tagged with blue fluorescent protein (mBFP::γ-TuRC) (from UniProt P23258 1-451) | 1.4 fold | 
B1 |  | binds
